Data published in publication PMC3656037.

Tested on: Sau-PolC-ΔNΔExo (Staphylococcus aureus)
Experiment: active site titration (pre-steady-state burst amplitude vs DNA, quadratic fit)
Details: Reaction buffer, salt, pH and temperature not given in the material; DNA annealed in 10 mM Tris-HCl pH 8, 1 mM EDTA, 100 mM NaCl; protein stored in 50 mM …

primer/template (p/t) DNA
Kd: 390 nM
